How the values were obtained:
[1] = biological target: T1, human GPA33 expressed on HEK293STF cells (EGFP-human GPA33 expression vector, ORIGENE RG210225) (human, UniProt Q99795 22-319); experiment: cell-based or functional assay
T1 sequence (looked up): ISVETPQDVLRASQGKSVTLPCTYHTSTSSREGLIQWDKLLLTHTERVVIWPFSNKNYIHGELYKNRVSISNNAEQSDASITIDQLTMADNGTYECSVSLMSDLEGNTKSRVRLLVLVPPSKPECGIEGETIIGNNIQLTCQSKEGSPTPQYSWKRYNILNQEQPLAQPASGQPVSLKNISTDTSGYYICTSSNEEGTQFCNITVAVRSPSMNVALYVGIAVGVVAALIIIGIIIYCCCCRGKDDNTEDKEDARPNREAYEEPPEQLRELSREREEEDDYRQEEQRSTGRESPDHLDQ

[2] = biological target: T2, human GPA33 recombinant protein (C-terminal His tag fusion protein, abcam) (human, UniProt Q99795 22-235, limits assumed); experiment: SPR, Biacore T200, 25°C, GPA33-His amine-coupled on CM5, scFv-Fc as analyte, 1:1 binding model
T2 construct: Bought recombinant protein (abcam); also called hGPA33
T2 sequence (looked up): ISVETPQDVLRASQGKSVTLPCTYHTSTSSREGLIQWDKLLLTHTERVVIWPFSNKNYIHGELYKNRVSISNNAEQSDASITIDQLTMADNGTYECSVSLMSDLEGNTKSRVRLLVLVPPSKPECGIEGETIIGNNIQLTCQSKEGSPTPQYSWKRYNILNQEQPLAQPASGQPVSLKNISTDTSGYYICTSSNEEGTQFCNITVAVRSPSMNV

[3] = biological target: T3, mouse GPA33 recombinant protein (C-terminal His tag fusion protein, abcam) (mouse, UniProt Q9JKA5 22-235, limits assumed); experiment: as above
T3 construct: Bought recombinant protein (abcam); also called mGPA33
T3 sequence (looked up): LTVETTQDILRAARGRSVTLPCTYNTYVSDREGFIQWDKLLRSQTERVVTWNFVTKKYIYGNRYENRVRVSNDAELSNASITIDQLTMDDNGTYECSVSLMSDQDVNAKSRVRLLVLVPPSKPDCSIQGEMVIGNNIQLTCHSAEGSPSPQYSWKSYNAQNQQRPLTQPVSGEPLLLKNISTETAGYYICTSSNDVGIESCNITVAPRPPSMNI

[4] = biological target: T4, human GPA33 expressed on CHO-K1 cells (hGPA33-expressing cells co-expressing GFP) (human, UniProt Q99795 22-319); experiment: FACS, cloned phage on GPA33-expressing CHO-K1 cells
T4 construct: whole, on cells; CHO-K1 transfected with an hGPA33 expression vector (ORIGENE) co-expressing GFP
T4 sequence (looked up): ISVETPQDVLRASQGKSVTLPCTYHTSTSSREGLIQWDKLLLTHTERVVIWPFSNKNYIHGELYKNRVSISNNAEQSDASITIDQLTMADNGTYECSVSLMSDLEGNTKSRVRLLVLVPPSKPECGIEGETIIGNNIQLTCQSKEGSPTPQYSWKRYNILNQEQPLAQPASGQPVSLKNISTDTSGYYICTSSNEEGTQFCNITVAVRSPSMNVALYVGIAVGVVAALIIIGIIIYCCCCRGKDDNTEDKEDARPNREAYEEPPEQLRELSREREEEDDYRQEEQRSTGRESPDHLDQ

[5] = biological target: T5, mouse GPA33 expressed on CHO-K1 cells (mGPA33-expressing cells) (mouse, UniProt Q9JKA5 22-319); experiment: as above
T5 construct: whole, on cells
T5 sequence (looked up): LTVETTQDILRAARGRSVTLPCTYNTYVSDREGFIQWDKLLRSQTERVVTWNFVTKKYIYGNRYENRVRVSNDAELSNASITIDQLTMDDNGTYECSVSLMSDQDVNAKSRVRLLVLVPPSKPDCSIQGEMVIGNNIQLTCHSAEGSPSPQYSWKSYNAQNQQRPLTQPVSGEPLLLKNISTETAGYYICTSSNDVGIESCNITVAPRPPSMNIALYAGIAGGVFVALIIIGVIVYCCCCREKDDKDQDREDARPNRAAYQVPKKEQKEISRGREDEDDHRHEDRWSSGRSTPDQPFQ

B1: R1CRD-G17-His (other)
chain: ISAEGSQACAKGCELCSEVNGCLKCSPKLFILLERNDIRQVGVCLPSCPPGYFDARNPDMNKCIKCKIEHCEACFSHNFCTKCKEGLYLHKGRCYPACPEGSSAANGTMECSSGGGGSGGGGSGGGGSQMQLVQSGGGLVKPGGSLRLSCAASGFTFSSYNMNWVRQAPGKGLEWVSSISSSGDFMYYADSVKGRFTISRDNAKNSLYLQMSSLRAEDTAVYYCAREGPGTPFDYWGQGTLVTVSSGGGGSGGGGSGSTGSAIQLTQSPSSLSASVGDRVTITCRASQSISSFLNWYQHKPGKAPKLLIYVASSLQSGVPSRFSGSGSGTDFTLTISSLQPEDFATYYCQQSHNTPYTFGQGTKLEIKHHHHHHGA
**Q.** What does the source list for B1?
**A.** EC50(GPA33) (nM), Wnt/β-catenin reporter in 293STF cells expressing GPA33 [1]: 0.027 nM; EC50(MOG)/ EC50(GPA33) [1]: 307

B2: GPA2RC28-Fc (anti-GPA33 single-chain Fv-Fc, scFv linked to human IgG1-Fc) (Fc fusion)
chain: EVQLVESGGGLVKPGGSLRLSCAASGFTFSSYSMNWVRQAPGKGLEWVSSISRDSTYIYYADSVKGRFTISRDNAKNSLYLQMNSLRAEDTAVYYCAREGVAGAFDIWGQGTMVTVSSGGGGSGGGGSGSTGSAIQLTQSPSSLSASVGDRVTITCRASQSISSYLNWYQQKPGKAPKLLIYIASSLQSGVPSRFSGSGSGTDFTLTISSLQPEDFATYYCQQSYNTWTFGQGTKVEIKPKSSDKTHTCPPCPAPEAEGAPSVFLFPPKPKDTLMISRTPEVTCVVVDVSHEDPEVKFNWYVDGVEVHNAKTKPREEQYNSTYRVVSVLTVLHQDWLNGKEYKCAVSNKALPASIEKTISKAKGQPREPQVYTLPPSREEMTKNQVSLTCLVKGFYPSDIAVEWESNGQPENNYKTTPPVLDSDGSFFLYSKLTVDKSRWQQGNVFSCSVMHEALHNHYTQKSLSLSPGK
notes: also called 2RC28 scFv-Fc; 2RC28 single-chain Fv-Fc
**Q.** What does the source list for B2?
**A.** Kd [2]: 5.7 nM; Kd [3]: 6.9 nM

B3: GPA33-2RC28 cloned scFv phage (scFv)
scFv: EVQLVESGGGLVKPGGSLRLSCAASGFTFSSYSMNWVRQAPGKGLEWVSSISRDSTYIYYADSVKGRFTISRDNAKNSLYLQMNSLRAEDTAVYYCAREGVAGAFDIWGQGTMVTVSSGGGGSGGGGSGSTGSAIQLTQSPSSLSASVGDRVTITCRASQSISSYLNWYQQKPGKAPKLLIYIASSLQSGVPSRFSGSGSGTDFTLTISSLQPEDFATYYCQQSYNTWTFGQGTKVEIK
**Q.** Which results are given for B3?
**A.** binding result [4]: binds; binding result [5]: binds

B4: GPA2RC17-Fc (anti-GPA33 single-chain Fv-Fc, scFv linked to human IgG1-Fc) (Fc fusion)
chain: QMQLVQSGGGLVKPGGSLRLSCAASGFTFSSYNMNWVRQAPGKGLEWVSSISSSGDFMYYADSVKGRFTISRDNAKNSLYLQMSSLRAEDTAVYYCAREGPGTPFDYWGQGTLVTVSSGGGGSGGGGSGSTGSAIQLTQSPSSLSASVGDRVTITCRASQSISSFLNWYQHKPGKAPKLLIYVASSLQSGVPSRFSGSGSGTDFTLTISSLQPEDFATYYCQQSHNTPYTFGQGTKLEIKPKSSDKTHTCPPCPAPEAEGAPSVFLFPPKPKDTLMISRTPEVTCVVVDVSHEDPEVKFNWYVDGVEVHNAKTKPREEQYNSTYRVVSVLTVLHQDWLNGKEYKCAVSNKALPASIEKTISKAKGQPREPQVYTLPPSREEMTKNQVSLTCLVKGFYPSDIAVEWESNGQPENNYKTTPPVLDSDGSFFLYSKLTVDKSRWQQGNVFSCSVMHEALHNHYTQKSLSLSPGK
notes: also called 2RC17 scFv-Fc; 2RC17-scFv-Fc
**Q.** What does the source list for B4?
**A.** Kd [2]: 1.4 nM; Kd [3]: 3.8 nM

B5: G17-R2CRD-His (other)
chain: QMQLVQSGGGLVKPGGSLRLSCAASGFTFSSYNMNWVRQAPGKGLEWVSSISSSGDFMYYADSVKGRFTISRDNAKNSLYLQMSSLRAEDTAVYYCAREGPGTPFDYWGQGTLVTVSSGGGGSGGGGSGSTGSAIQLTQSPSSLSASVGDRVTITCRASQSISSFLNWYQHKPGKAPKLLIYVASSLQSGVPSRFSGSGSGTDFTLTISSLQPEDFATYYCQQSHNTPYTFGQGTKLEIKGGGGSGGGGSGGGGSNPICKGCLSCSKDNGCSRCQQKLFFFLRREGMRQYGECLHSCPSGYYGHRAPDMNRCARCRIENCDSCFSKDFCTKCKVGFYLHRGRCFDECPDGFAPLEETMECVEGHHHHHHGA
**Q.** B5 was tested. Which “EC50(GPA33) (nM), Wnt/β-catenin reporter in 293STF cells expressing GPA33” value (“EC50(GPA33) (nM), Wnt/β-catenin reporter” for short) [1] did it give?
**A.** 0.021 nM

**Q.** What about the “EC50(MOG)/ EC50(GPA33)” value [1] of the same binder?
**A.** 15.2

B6: G17-R1CRD-His (other)
chain: QMQLVQSGGGLVKPGGSLRLSCAASGFTFSSYNMNWVRQAPGKGLEWVSSISSSGDFMYYADSVKGRFTISRDNAKNSLYLQMSSLRAEDTAVYYCAREGPGTPFDYWGQGTLVTVSSGGGGSGGGGSGSTGSAIQLTQSPSSLSASVGDRVTITCRASQSISSFLNWYQHKPGKAPKLLIYVASSLQSGVPSRFSGSGSGTDFTLTISSLQPEDFATYYCQQSHNTPYTFGQGTKLEIKGGSGGSISAEGSQACAKGCELCSEVNGCLKCSPKLFILLERNDIRQVGVCLPSCPPGYFDARNPDMNKCIKCKIEHCEACFSHNFCTKCKEGLYLHKGRCYPACPEGSSAANGTMECSSPAHHHHHHGA
**Q.** How did the “EC50(GPA33) (nM), Wnt/β-catenin reporter” value [1] turn out when B6 was run?
**A.** 0.031 nM

**Q.** What about the “EC50(MOG)/ EC50(GPA33)” value [1] of the same binder?
**A.** 968

B7: G17-R1CRD-GS3-Fcm (Fc fusion)
chain: QMQLVQSGGGLVKPGGSLRLSCAASGFTFSSYNMNWVRQAPGKGLEWVSSISSSGDFMYYADSVKGRFTISRDNAKNSLYLQMSSLRAEDTAVYYCAREGPGTPFDYWGQGTLVTVSSGGGGSGGGGSGSTGSAIQLTQSPSSLSASVGDRVTITCRASQSISSFLNWYQHKPGKAPKLLIYVASSLQSGVPSRFSGSGSGTDFTLTISSLQPEDFATYYCQQSHNTPYTFGQGTKLEIKGGSGGSISAEGSQACAKGCELCSEVNGCLKCSPKLFILLERNDIRQVGVCLPSCPPGYFDARNPDMNKCIKCKIEHCEACFSHNFCTKCKEGLYLHKGRCYPACPEGSSAANGTMECSSGGGGSGGGGSGGGGSEPKSADKTHTCPPCPAPEAEGAPSVFLFPPKPKDTLMISRTPEVTCVVVDVSHEDPEVKFNWYVDGVEVHNAKTKPREEQYNSTYRVVSVLTVLHQDWLNGKEYKCAVSNKALPASIEKTISKAKGQPREPQVYTLPPSREEMTKNQVSLTCLVKGFYPSDIAVEWESNGQPENNYKTTPPVLDSDGSFFLYSKLTVDKSRWQQGNVFSCSVMHEALHNHYTQKSLSLSPGK
**Q.** B7 was tested. Which “EC50(GPA33) (nM), Wnt/β-catenin reporter” value [1] did it give?
**A.** 0.054 nM

**Q.** What about the “EC50(MOG)/ EC50(GPA33)” value [1] of the same binder?
**A.** > 556

B8: G17-R4CRD-His (other)
chain: QMQLVQSGGGLVKPGGSLRLSCAASGFTFSSYNMNWVRQAPGKGLEWVSSISSSGDFMYYADSVKGRFTISRDNAKNSLYLQMSSLRAEDTAVYYCAREGPGTPFDYWGQGTLVTVSSGGGGSGGGGSGSTGSAIQLTQSPSSLSASVGDRVTITCRASQSISSFLNWYQHKPGKAPKLLIYVASSLQSGVPSRFSGSGSGTDFTLTISSLQPEDFATYYCQQSHNTPYTFGQGTKLEIKGGSGGSGGNCTGCIICSEENGCSTCQQRLFLFIRREGIRQYGKCLHDCPPGYFGIRGQEVNRCKKCGATCESCFSQDFCIRCKRQFYLYKGKCLPTCPPGTLAHQNTRECQGHHHHHHGA
**Q.** Which results are given for B8?
**A.** EC50(GPA33) (nM), Wnt/β-catenin reporter in 293STF cells expressing GPA33 [1]: 0.008 nM; EC50(MOG)/ EC50(GPA33) [1]: 348

B9: GPA33-2RC17 cloned scFv phage (scFv)
scFv: QMQLVQSGGGLVKPGGSLRLSCAASGFTFSSYNMNWVRQAPGKGLEWVSSISSSGDFMYYADSVKGRFTISRDNAKNSLYLQMSSLRAEDTAVYYCAREGPGTPFDYWGQGTLVTVSSGGGGSGGGGSGSTGSAIQLTQSPSSLSASVGDRVTITCRASQSISSFLNWYQHKPGKAPKLLIYVASSLQSGVPSRFSGSGSGTDFTLTISSLQPEDFATYYCQQSHNTPYTFGQGTKLEIK
notes: also called G17
**Q.** Which results are given for B9?
**A.** binding result [4]: binds; binding result [5]: binds
